{
  "source": "patent US7662384B2",
  "about": "“Use of anti-α5β1 antibodies to inhibit cancer cell proliferation” (Facet Biotech Corporation, priority 2004, dated 2010)",
  "key": {"[1]": {"target": "α5β1 integrin binding to fibronectin (Homo sapiens, UniProt P05556+P08648)", "sequence (P08648 42-894 limits assumed)": "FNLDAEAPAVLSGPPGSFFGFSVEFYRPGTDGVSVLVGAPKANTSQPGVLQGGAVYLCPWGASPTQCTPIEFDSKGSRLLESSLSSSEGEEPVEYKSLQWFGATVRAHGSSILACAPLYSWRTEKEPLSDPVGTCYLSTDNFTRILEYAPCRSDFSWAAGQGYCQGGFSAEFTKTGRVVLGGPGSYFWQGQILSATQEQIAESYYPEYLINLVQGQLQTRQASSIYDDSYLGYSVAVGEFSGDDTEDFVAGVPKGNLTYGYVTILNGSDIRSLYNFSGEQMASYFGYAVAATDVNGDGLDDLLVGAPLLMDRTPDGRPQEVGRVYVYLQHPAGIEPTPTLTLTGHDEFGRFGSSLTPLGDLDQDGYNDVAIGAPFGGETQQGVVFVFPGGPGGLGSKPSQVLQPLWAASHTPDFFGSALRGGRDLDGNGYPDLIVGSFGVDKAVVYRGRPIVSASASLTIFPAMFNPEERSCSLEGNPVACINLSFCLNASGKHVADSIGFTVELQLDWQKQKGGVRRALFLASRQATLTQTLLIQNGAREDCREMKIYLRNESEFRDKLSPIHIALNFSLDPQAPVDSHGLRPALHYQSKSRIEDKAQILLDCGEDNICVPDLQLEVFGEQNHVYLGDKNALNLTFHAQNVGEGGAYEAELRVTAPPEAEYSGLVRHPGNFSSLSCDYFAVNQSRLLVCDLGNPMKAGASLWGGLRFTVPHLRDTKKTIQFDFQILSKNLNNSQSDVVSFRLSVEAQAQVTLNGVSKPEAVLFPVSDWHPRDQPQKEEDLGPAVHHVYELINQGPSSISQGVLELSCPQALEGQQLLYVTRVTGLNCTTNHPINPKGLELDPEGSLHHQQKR", "sequence (P08648 895-1049 limits assumed)": "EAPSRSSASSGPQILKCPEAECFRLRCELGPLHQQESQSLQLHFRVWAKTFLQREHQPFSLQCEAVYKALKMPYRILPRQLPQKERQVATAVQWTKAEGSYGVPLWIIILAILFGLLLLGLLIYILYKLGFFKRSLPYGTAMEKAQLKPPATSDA", "sequence (P05556 21-798)": "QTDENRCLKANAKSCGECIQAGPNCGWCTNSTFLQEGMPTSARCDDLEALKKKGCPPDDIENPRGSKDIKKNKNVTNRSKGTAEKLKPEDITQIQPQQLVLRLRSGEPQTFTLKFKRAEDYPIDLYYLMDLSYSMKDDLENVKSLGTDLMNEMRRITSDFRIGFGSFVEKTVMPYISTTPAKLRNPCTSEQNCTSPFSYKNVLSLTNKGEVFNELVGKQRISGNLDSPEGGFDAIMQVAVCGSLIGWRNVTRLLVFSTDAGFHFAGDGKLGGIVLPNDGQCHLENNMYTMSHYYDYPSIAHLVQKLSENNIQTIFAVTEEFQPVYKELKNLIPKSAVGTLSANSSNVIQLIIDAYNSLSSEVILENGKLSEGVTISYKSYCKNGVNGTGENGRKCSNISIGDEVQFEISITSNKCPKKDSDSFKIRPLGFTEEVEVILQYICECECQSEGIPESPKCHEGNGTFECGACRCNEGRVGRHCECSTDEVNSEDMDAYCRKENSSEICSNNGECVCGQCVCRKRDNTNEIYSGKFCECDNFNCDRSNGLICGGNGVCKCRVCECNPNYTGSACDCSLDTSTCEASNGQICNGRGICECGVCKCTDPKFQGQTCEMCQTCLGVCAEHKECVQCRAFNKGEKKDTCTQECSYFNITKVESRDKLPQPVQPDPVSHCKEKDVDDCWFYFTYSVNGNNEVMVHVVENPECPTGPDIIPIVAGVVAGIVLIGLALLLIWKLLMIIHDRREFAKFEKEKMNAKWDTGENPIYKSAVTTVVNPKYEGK", "settings": "cited from earlier work"}, "[2]": {"test_system": "activated endothelial cells", "settings": "regardless of the growth factor stimulus; cited from earlier work"}, "VX2 carcinoma": {"test_system": "VX2 carcinoma", "assay": "M200 VX2 rabbit tumor efficacy study", "format": "in vivo", "protocol": "Starting on Day 5, tumor dimensions (Length, Width and Height) were measured in millimeters via electronic vernier calipers connected to a laptop computer at a minimum frequency of twice weekly. For consistency, the same trained technician performed the tumor measurements throughout the course of the study. Tumor volume was calculated using the formula: Length×Width×Height×0.52. Upon animal termination, tumors were carefully excised, trimmed and weighed. In addition, animals were weighed a minimum of once weekly. Representative samples of each tumor were preserved in sample cassette in formalin or OCT and flash frozen in liquid nitrogen.\nRabbits (30 total) were inoculated, either subcutaneously or intramuscularly with either a VX2 cell suspension (100 μl) or pieces of tumor (˜5-10 mm^3). The test group of 20 was treated with M200 at 10 mg/kg intravenously, twice weekly for 3 weeks. The control group of 10 animals was treated with a control IgG delivered by the same method as the M200. Tumor measurements, termination, weighing, tumor preservation and study duration were carried out according to the methods described above for the Pilot Study. In addition, one milliliter of blood was taken from an ear vessel on a weekly basis for serum analysis."}, "α5β1 sites on monocytes": {"target": "T1, α5β1 sites on monocytes (Homo sapiens, UniProt P05556+P08648)", "T1 construct": "endogenous in cells; host or cells: CD14+ monocytes in peripheral blood of human patients", "T1 sequence (P08648 42-894 limits assumed)": "as the sequence (P08648 42-894 limits assumed) above", "T1 sequence (P08648 895-1049 limits assumed)": "as the sequence (P08648 895-1049 limits assumed) above", "T1 sequence (P05556 21-798)": "as the sequence (P05556 21-798) above", "assay": "Phase I study: saturation of α5β1 sites on monocytes by flow cytometry", "format": "in vivo", "settings": "10 mg/kg dosage", "protocol": "The integrin α5β1 is also expressed on monocytes in the peripheral blood. To determine the dose at which the α5β1 sites on these circulating cells is saturated by M200, samples of peripheral blood were taken before the first dose on Study Day 1, Study Days 2 and 8, just before each subsequent dose, and on Study Day 43. The saturation of α5β1 sites on monocytes was determined by flow cytometry. The monocytes were identified by using antibodies to CD14. Bound M200 on the monocyte surface was detected by adding labeled anti-human IgG4. Unoccupied (free) α5β1 on the cells was detected by adding labeled IIA1. The percentages of monocytes and lymphocytes expressing α5β1 was also assessed."}, "NW231": {"test_system": "NW231", "assay": "M200 in vitro cell proliferation assay", "format": "cell-based, human", "settings": "NW231 (breast)", "protocol": "(§1) Cancer cell lines were plated at a density of 2500 cells/well in 96-well plates in IMDM with supplements in the presence or absence of 10% FBS. At the time of plating, cells were challenged with various concentrations M200 or a non-function blocking anti-α5 antibody, VC5. […] All growth studies were done at least 3 times in triplicate."}, "[3]": {"assay": "pharmacokinetic studies in cynomolgus monkeys", "format": "in vivo"}, "LOX": {"test_system": "LOX", "assay": "M200 in vitro cell proliferation assay", "format": "cell-based", "settings": "LOX (melanoma)", "protocol": "as §1"}, "[4]": {"settings": "human, in vivo, 10 mg/kg", "experimental": "The serum for measuring M200 concentrations was obtained immediately before and after the first dose, and at 4, 24, 48, and 168 hours after completion of the first dose. Serum samples for measuring M200 concentrations were also taken immediately before, at the end, and 4 hours after the completion of each subsequent infusion. These samples were split and aliquots assayed before the next dose and again at the end of the study: end of 1st dose, 168 hours after 1st dose, immediately pre-dose (trough) and immediately post-dose (peak) for the 2nd, 3rd, 4th and 5th doses. The serum levels of M200 were measured by ELISA.\nThe plasma concentration-time data of M200 from each patient was subjected to a PK analysis. The following parameters were included in the calculations: peak (Cmax) and trough (Cmin) levels, terminal phase half-life (T1/2 β), area under the plasma-concentration time curve (AUC), elimination clearance (CL), and volume of distribution (V). Summary parameters were computed across patients from each treatment group. Changes in the PK parameters as a function of dose and time were also evaluated."}, "refractory solid tumors": {"test_system": "refractory solid tumors", "assay": "Phase I extension study: tumor response", "format": "in vivo, human", "protocol": "A two-part Phase I open-label study was carried to determine the effects of treatment with up to 6 dose levels, from 0.5 mg/kg to 15.0 mg/kg of M200 (volociximab) in 21 human patients with a variety of refractory solid tumor types. The total duration of treatment for the first part was 6 weeks with physical assessments through 45 days after the last dose.\nPatient evaluations during the study included the following: • a. Screening (within 14 days of study entry) of: medical history and physical examination, ECOG performance status, routine chemistry panel, complete blood count (CBC) with differential and platelets, sensitive C-reactive protein (CRP), urinalysis with microscopic analysis (UA/micro), electrocardiogram (ECG), chest radiograph (CXR), disease-directed body CT or MRI, urine pregnancy test within 48 hours prior to dosing, and coagulation studies (prothrombin [PT] and partial thromboplastin time [PTT]), anti-M200 antibodies (i.e., to detect cross-reactive HAMA or HACA) for patients who previously received murine or chimeric antibodies, head CT for patients with tumors that commonly metastasize to brain or CNS, and, in some patients, a biopsy to evaluate tumor vessel vascularity. • b. On-study laboratory evaluations: routine chemistry panel, urate, serum amylase, CBC with differential and platelets, UA/micro. • c. Routine disease-directed radiographic imaging (e.g., CT scanning) before and after treatment with M200 was used to evaluate tumor response using uni-dimensional, RECIST criteria. Target lesions were selected on the basis of their size (lesions with the longest diameter (LD)) and their suitability for accurate repetitive measurements (either by imaging techniques or clinically). A sum of the LD for all target lesions was calculated and reported as the baseline sum LD. The baseline sum LD was used as reference by which to characterize the objective tumor response. The following response criteria for the target lesions was used to assess the best overall response. • Complete Response (CR): Disappearance of all target lesions confirmed by repeat imaging 25 to 28 days after CR first documented. • Partial Response (PR): At least a 30% decrease in the sum of LD of target lesions, taking as reference the baseline sum LD, confirmed by repeat imaging 25 to 28 days after PR first documented. • Stable Disease (SD): Neither sufficient shrinkage to qualify for PR nor sufficient increase to qualify for PD, taking as references the smallest sum LD. • Progressive Disease (PD): At least a 20% increase in the sum of LD of target lesions, taking as reference the smallest sum LD recorded since treatment started, or the appearance of one or more new lesions. • d. Blood drawn for serum PK measurements, immunogenicity assays (anti-M200 antibodies), vascular growth factors, and measurement of bound and unbound α5β1 on peripheral blood monocytes. • e. A 3-mm punch biopsy of superficial tumor metastasis was obtained and frozen after the last treatment with M200 from patients who consented (not required for enrollment) to the procedure. This biopsy specimen could be used evaluate tumor vessel vascularity following treatment with M200.\nOne of these patients with renal cell cancer (RCC) in the 15.0 mg/kg cohort achieved a partial response."}, "rat α5β1 integrin": {"test_system": "rat α5β1 integrin", "assay": "species cross-reactivity of anti-α5β1 antibody", "format": "binding"}, "[5]": {"settings": "absence of serum, 2-day rather than 4-day assay"}},
  "data": [
    {"molecule": "IIA1: parent mouse IgG1 class anti-α5β1 antibody shown to inhibit α5β1 integrin binding to fibronectin (antibody, V domains shown, mus muscalus) VH: MAVLGLLLCLVTFPSCVLSQVQLKESGPGLVAPSQSLSITCTISGFSLTDYGVHWVRQPPGKGLEWLVVIWSDGSSTYNSALKSRMTIRKDNSKSQVFLIMNSLQTDDSAMYYCARHGTYYGMTTTGDALDYWGQGTSVTVSS VL: MDFQVQIFSFLLISASVIMSRGQIVLTQSPAIMSASLGERVTMTCTASSSVSSNYLHWYQQKPGSAPNLWIYSTSNLASGVPARFSGSGSGTSYSLTISSMEAEDAATYYCHQYLRSPPTFGGGTKLEIK", "values": [
      {"measurement": "inhibition of α5β1 integrin binding to fibronectin", "setting": "[1]", "result": "inhibit α5β1 integrin binding to fibronectin"}
    ]},
    {"molecule": "M200: chimeric IgG4 anti-α5β1 antibody derived from IIA1; generic name volociximab (antibody, V domains shown, chimeric antibody, chimeric IgG4 anti-α5β1 antibody derived from IIA1; generic name volociximab) VH: MAVLGLLLCLVTFPSCVLSQVQLKESGPGLVAPSQSLSITCTISGFSLTDYGVHWVRQPPGKGLEWLVVIWSDGSSTYNSALKSRMTIRKDNSKSQVFLIMNSLQTDDSAMYYCARHGTYYGMTTTGDALDYWGQGTSVTVSS VL: MDFQVQIFSFLLISASVIMSRGQIVLTQSPAIMSASLGERVTMTCTASSSVSSNYLHWYQQKPGSAPNLWIYSTSNLASGVPARFSGSGSGTSYSLTISSMEAEDAATYYCHQYLRSPPTFGGGTKLEIKDMSVDMSV", "values": [
      {"measurement": "apoptosis of activated endothelial cells in vitro", "setting": "[2]", "result": "induce apoptosis"},
      {"measurement": "circulating level of M200 at which tumor growth was inhibited", "setting": "VX2 carcinoma; rabbit VX2 model", "result": "≥ 50", "unit": "µg/mL"},
      {"measurement": "VX2 tumor growth", "setting": "VX2 carcinoma; rabbit, 10 mg/kg intravenously, twice weekly for 3 weeks", "result": "able to inhibit tumor growth"},
      {"measurement": "immunogenicity", "setting": "VX2 carcinoma; rabbits, immune response as early as two weeks, eventually all animals seroconvert", "result": "immunogenic in rabbits"},
      {"measurement": "monocyte saturation", "setting": "α5β1 sites on monocytes", "result": "monocyte saturation"},
      {"measurement": "% Growth Inhibition +Serum", "setting": "NW231; 10% FBS, 4-day assay", "result": 35, "unit": "%"},
      {"measurement": "% Growth Inhibition −Serum", "setting": "NW231; [5]", "result": "10^2%"},
      {"measurement": "mean peak level (serum)", "setting": "[3]; 50 mg/kg after 4 weekly doses", "result": 1862, "unit": "µg/mL"},
      {"measurement": "range of peak level (serum)", "setting": "[3]; 50 mg/kg after 4 weekly doses", "result": "1000 to 2606", "unit": "µg/mL"},
      {"measurement": "toxicity", "setting": "[3]; at peak serum concentrations after 50 mg/kg, 4 weekly doses", "result": "no toxicity"},
      {"measurement": "% Growth Inhibition +Serum", "setting": "LOX; 10% FBS, 4-day assay", "result": 35, "unit": "%"},
      {"measurement": "% Growth Inhibition −Serum", "setting": "LOX; [5]", "result": "40^2%"},
      {"measurement": "T1/2", "setting": "[4]", "result": 15.7, "unit": "days"},
      {"measurement": "Best Response Outcome", "setting": "refractory solid tumors; 2.5 mg/kg, 1 patient, NSCLC", "result": "SD (SD defined as stabilization for ≧16 weeks (112 days))"},
      {"measurement": "Time to Progression", "setting": "refractory solid tumors; 2.5 mg/kg, 1 patient, NSCLC, includes 43 days on dose escalation study", "result": 129, "unit": "days"},
      {"measurement": "Best Response Outcome", "setting": "refractory solid tumors; 5 mg/kg, 1 patient, HCC", "result": "SD (SD defined as stabilization for ≧16 weeks (112 days))"},
      {"measurement": "Time to Progression", "setting": "refractory solid tumors; 5 mg/kg, 1 patient, HCC, includes 43 days on dose escalation study", "result": 122, "unit": "days"},
      {"measurement": "Time to Progression", "setting": "refractory solid tumors; 10 mg/kg, 1 patient, CRC, includes 43 days on dose escalation study", "result": 70, "unit": "days"},
      {"measurement": "Best Response Outcome", "setting": "refractory solid tumors; 10 mg/kg, 1 patient, PARO", "result": "SD (SD defined as stabilization for ≧16 weeks (112 days))"},
      {"measurement": "Time to Progression", "setting": "refractory solid tumors; 10 mg/kg, 1 patient, PARO, includes 43 days on dose escalation study", "result": 143, "unit": "days"},
      {"measurement": "Best Response Outcome", "setting": "refractory solid tumors; 15 mg/kg, 1 patient, MEL", "result": "SD (SD defined as stabilization for ≧16 weeks (112 days))"},
      {"measurement": "Time to Progression (Days)", "setting": "refractory solid tumors; 15 mg/kg, 1 patient, MEL, on study, includes 43 days on dose escalation study", "result": "172+ (on Study) Days"},
      {"measurement": "Time to Progression", "setting": "refractory solid tumors; 15 mg/kg, 1 patient, RCC, includes 43 days on dose escalation study", "result": 214, "unit": "days"},
      {"measurement": "patients exhibiting stable disease (SD) or better response", "setting": "refractory solid tumors; of the 6 patients in the extension study", "result": 5, "unit": "patients"},
      {"measurement": "cross reaction with rat α5β1 integrin", "setting": "rat α5β1 integrin", "result": "does not cross react"}
    ]}
  ]
}
